Source: publication PMC12649849

Target: Protein A on the ProA BLI sensor (Staphylococcus aureus) (UniProt P38507)
Assay: BLI

ChromPure mouse IgG (whole molecule) (antibody)
koff: 0.00121 s⁻¹ | kon: 92500 M⁻¹ s⁻¹
